Experimental findings from article PMC314469, “Protein Interaction Networks by Proteome Peptide Scanning” (PLoS Biology, 2004) are described below.

In the first experiment the target is T1, amphyphisin SH3 (AMPH_HUMAN), P49418.
T1 chain: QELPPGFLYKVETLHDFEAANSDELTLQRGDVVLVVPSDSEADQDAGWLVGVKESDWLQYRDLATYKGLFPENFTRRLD
Put plainly: SPOT array.
LRKRPLKPPAKKIM [O14789 574-588] had a normalised SPOT signal, Boehringer light units (BLU); mean over the file's lines of this peptide of 91.3.
The molecule APQSPRRPPHPLPP [P12270 2055-2069] displayed a normalised SPOT signal, Boehringer light units (BLU); mean over the file's lines of this peptide of 339.
In turn, LRPVPRRPSTWSRR [Q9NWJ0 49-62] came in with a normalised SPOT signal, Boehringer light units (BLU); mean over the file's lines of this peptide of 2420.
LQLGPSRPPTGEAL [Q9NXY3 388-402] registered a normalised SPOT signal, Boehringer light units (BLU); mean over the file's lines of this peptide of 38.
Same read-out and setting: to LQPRPRRPREAADT [Q96LS1 115-128] belongs 371; to LPLPPPRPPLLSAR [Q9P0P4 137-151], 2320; to LPLPFSRPQKIYHF [O95047 163-176], 428.
The same measure, in the same setting: next, LPIAFIRPFREHHI [Q9UKL1 106-119]: 6760; LPRSPPRPPRLWSF [Q9UKB5 52-66]: 15300; LQRQLKRPRPVILD [Q9H3P5 284-297]: 41.9.
Same read-out and setting: to LQGIFTRPSKLTRQ [O43611 94-107] belongs 324.
In turn, LREDFVRPLREGIL [Q9P2E3 383-396] yielded a normalised SPOT signal, Boehringer light units (BLU); mean over the file's lines of this peptide of 5300.
On to LRPVPGKPPGVDPL [Q04727 335-349], for which the normalised SPOT signal, Boehringer light units (BLU); mean over the file's lines of this peptide came to 66.4.
On the same count and under the same terms, next, LPVSLTRPPKLVLH [Q9Y2E6 378-391]: 121.
Still for that read-out and setting: to LQRRLKRPETPTHD [Q9NVU6 531-544] belongs 28.9.
Still for that read-out and setting: next, LRGKFKRPPLRRVR [P48788 102-115]: 35.8; LQPRPRRPREAPDT [Q15653 147-160]: 412; LPPKPARPPAVSPA [O60885 879-893]: 215.
APPVLKRPILQSLL [Q14700 527-540]: the normalised SPOT signal, Boehringer light units (BLU); mean over the file's lines of this peptide is 39.2.
With APQPPGRPPTPGPP [Q14957 973-987], the normalised SPOT signal, Boehringer light units (BLU); mean over the file's lines of this peptide came to 307.
The same measure, in the same setting: next, LRAMPSRPPRLLAT [Q9UNU2 285-298]: 5160; LRGKFKRPTLRRVR [P19429 134-147]: 23.3; LPPLPKRPALEKTN [Q9NR56 294-307]: 160.
Still for that read-out and setting: to LQKQPRRPRRWVTV [O95125 124-137] belongs 2180.
LQFRIRRPRPPARG [Q96QS4 5-18] registered a normalised SPOT signal, Boehringer light units (BLU); mean over the file's lines of this peptide of 84.3.
The molecule LQSDPPRPHRILQA [Q06481 479-492] gave a normalised SPOT signal, Boehringer light units (BLU); mean over the file's lines of this peptide of 170.
Consider AAPPPAKPPPPPQP [O15399 900-914], for which the normalised SPOT signal, Boehringer light units (BLU); mean over the file's lines of this peptide stood at 41.3.
Take LPLPPARPPVLHSS [O95098 58-72]: the normalised SPOT signal, Boehringer light units (BLU); mean over the file's lines of this peptide was found to be 1580.
On the same count and under the same terms, next, LPKHLRRPEPSKPQ [Q96M07 127-140]: 15.9; APQPPPRPPSPRYE [Q9Y566 1372-1386]: 1320; LPQWPRRPGRRWPA [Q9Y6F2 30-43]: 820.
Take LQAELRRPPPAPAQ [O94766 54-67]: the normalised SPOT signal, Boehringer light units (BLU); mean over the file's lines of this peptide stood at 26.4.
LPPLPHRPPQNPFV [P42694 1701-1715] came in with a normalised SPOT signal, Boehringer light units (BLU); mean over the file's lines of this peptide of 261.
LPHWLRRPVYSLYI [Q9UG56 133-146] had a normalised SPOT signal, Boehringer light units (BLU); mean over the file's lines of this peptide of 49.7.
In turn, LPPDIERPYKAEPL [Q9Y4U3 288-301] showed a normalised SPOT signal, Boehringer light units (BLU); mean over the file's lines of this peptide of 75.1.
The same measure, in the same setting: next, LPKGLGRPGKGHYW [Q12946 84-97]: 207; LRATLKRPEVIATS [Q96JV6 461-474]: 37.9; LRPPPMRPVRPVVQ [O43295 603-616]: 7210.

The next experiment has as its target endophilin SH3 (SH3G2_HUMAN), Q99962. Put plainly: SPOT array.
On to LRKRPLKPPAKKIM [O14789 574-588], for which the normalised SPOT signal, Boehringer light units (BLU); mean over the file's lines of this peptide was 6220.
The molecule APQSPRRPPHPLPP [P12270 2055-2069] displayed a normalised SPOT signal, Boehringer light units (BLU); mean over the file's lines of this peptide of 2810.
Same read-out and setting: to LRPVPRRPSTWSRR [Q9NWJ0 49-62] belongs 4830.
As to LQLGPSRPPTGEAL [Q9NXY3 388-402], the normalised SPOT signal, Boehringer light units (BLU); mean over the file's lines of this peptide amounted to 62.4.
Molecule LQPRPRRPREAADT [Q96LS1 115-128] came in with a normalised SPOT signal, Boehringer light units (BLU); mean over the file's lines of this peptide of 329.
LPLPPPRPPLLSAR [Q9P0P4 137-151] registered a normalised SPOT signal, Boehringer light units (BLU); mean over the file's lines of this peptide of 8510.
LPLPFSRPQKIYHF [O95047 163-176] gave a normalised SPOT signal, Boehringer light units (BLU); mean over the file's lines of this peptide of 680.
For LPIAFIRPFREHHI [Q9UKL1 106-119], the normalised SPOT signal, Boehringer light units (BLU); mean over the file's lines of this peptide is 1060.
On the same count and under the same terms, next, LPRSPPRPPRLWSF [Q9UKB5 52-66]: 24000; LQRQLKRPRPVILD [Q9H3P5 284-297]: 194.
As for LQGIFTRPSKLTRQ [O43611 94-107], the normalised SPOT signal, Boehringer light units (BLU); mean over the file's lines of this peptide came to 210.
Turning to LREDFVRPLREGIL [Q9P2E3 383-396], the normalised SPOT signal, Boehringer light units (BLU); mean over the file's lines of this peptide worked out at 208.
LRPVPGKPPGVDPL [Q04727 335-349] showed a normalised SPOT signal, Boehringer light units (BLU); mean over the file's lines of this peptide of 32.5.
On the same count and under the same terms, to LPVSLTRPPKLVLH [Q9Y2E6 378-391] belongs 272; to LQRRLKRPETPTHD [Q9NVU6 531-544], 41.8.
The same measure, in the same setting: to LRGKFKRPPLRRVR [P48788 102-115] belongs 50.6.
The same measure, in the same setting: next, LQPRPRRPREAPDT [Q15653 147-160]: 222; LPPKPARPPAVSPA [O60885 879-893]: 4260; APPVLKRPILQSLL [Q14700 527-540]: 309.
With APQPPGRPPTPGPP [Q14957 973-987], the normalised SPOT signal, Boehringer light units (BLU); mean over the file's lines of this peptide was 820.
Same read-out and setting: to LRAMPSRPPRLLAT [Q9UNU2 285-298] belongs 7160; to LRGKFKRPTLRRVR [P19429 134-147], 38; to LPPLPKRPALEKTN [Q9NR56 294-307], 2280.
On the same count and under the same terms, next, LQKQPRRPRRWVTV [O95125 124-137]: 220; LQFRIRRPRPPARG [Q96QS4 5-18]: 48.5; LQSDPPRPHRILQA [Q06481 479-492]: 184.
The molecule AAPPPAKPPPPPQP [O15399 900-914] had a normalised SPOT signal, Boehringer light units (BLU); mean over the file's lines of this peptide of 77.6.
In the case of LPLPPARPPVLHSS [O95098 58-72], the normalised SPOT signal, Boehringer light units (BLU); mean over the file's lines of this peptide is 3620.
On the same count and under the same terms, next, LPKHLRRPEPSKPQ [Q96M07 127-140]: 12.8.
APQPPPRPPSPRYE [Q9Y566 1372-1386] came in with a normalised SPOT signal, Boehringer light units (BLU); mean over the file's lines of this peptide of 14500.
As to LPQWPRRPGRRWPA [Q9Y6F2 30-43], the normalised SPOT signal, Boehringer light units (BLU); mean over the file's lines of this peptide stood at 7880.
The same measure, in the same setting: to LQAELRRPPPAPAQ [O94766 54-67] belongs 21.1; to LPPLPHRPPQNPFV [P42694 1701-1715], 79; to LPHWLRRPVYSLYI [Q9UG56 133-146], 210.
On the same count and under the same terms, to LPPDIERPYKAEPL [Q9Y4U3 288-301] belongs 95.9.
Same read-out and setting: to LPKGLGRPGKGHYW [Q12946 84-97] belongs 104; to LRATLKRPEVIATS [Q96JV6 461-474], 97.1; to LRPPPMRPVRPVVQ [O43295 603-616], 16200.
